These results are taken from paper PMC4526809.

Values joined by “and” are separate entries in the source; they are usually repeats but may differ in a detail not shown here. Equal values may be shown once.

Assay [1] concerns the target His6-tagged B. cereus C-SpoIISA (pETDuetCIISA Bc; pETDuetCIISAB Bc) (Bacillus cereus ATCC 14579) (UniProt Q81DD1). Kind of assay: cross-linking; 80 μg Ni-purified His6-C-SpoIISA with glutaraldehyde (5 μl of 2.3% in 100 μl), 30 min, 37°C; 12% SDS-PAGE and Western blot. A general note: Immunoblotting shows a protein as a band on a membrane.
The target in assay [2] is untagged B. cereus C-SpoIISA (Bacillus cereus ATCC 14579) (UniProt Q81DD1). Kind of assay: SEC; purified untagged C-SpoIISA on Superose 6 10/300 GL, 0.4 ml/min, absorbance at 280 nm. (In gel filtration, larger molecules generally elute earlier.)

By stoichiometry N is commonly meant a count of units in the complex or per binding partner. Take “His6-tagged B. cereus C-SpoIISA (pETDuetCIISA Bc; pETDuetCIISAB Bc) (from UniProt Q81DD1 1-245) (domain or fragment)”: in assay [1], the stoichiometry N is 2 and 3.

Take “untagged B. cereus C-SpoIISA (from UniProt Q81DD1 1-245) (domain or fragment)”: the stoichiometry N in assay [2] was 2 and 3.
